This data set deals with the molecule itself. Briefly: cryo-EM structure; ClpX^∆N pseudohexamer 4 µM and ClpP14 1.8 µM (2 µM in the results) in EM buffer (20 mM HEPES, pH 7.5, 100 mM KCl, 25 mM MgCl2, 5 mM ATPγS), 5 min at 25°C before vitrification; doubly capped complexes analysed.

Experimental findings from publication PMC7112951, “Structures of the ATP-fueled ClpXP proteolytic machine bound to protein substrate” (eLife, 2020) are described below.

B1: one ClpX^∆N E185Q subunit (unit) of the single-chain pseudohexamer (domain or fragment)
chain: not shown
notes: ClpX, E. coli K12, residues 62-424 (ClpX^∆N); In the sample the six units are joined on one chain by six-residue linkers; written alone for the contacts between neighbouring units; also called ClpX^∆N subunit; subunits A-F; source: E. coli strain ER2566, purified, as part of the single-chain pseudohexamer m1
Regarding B1, the “stoichiometry N” value turned out to be 6.

A word on the stoichiometry N: it is the number of molecules, sites or subunits per partner or assembly.
